# Experimental data published in publication PMC2933323 (Nature structural & molecular biology, 2010).
# What was measured:
# [1] = biological target: endogenous Rb of CV-1 cells (African green monkey (endogenous in CV-1)); assay: co-IP
# [2] = biological target: Rb expressed from CMV-Rb in Saos-2 cells (UniProt P06400); assay: co-IP
# [3] = biological target: catalytic subunit of protein phosphatase 1 (PP1c), α isoform (human, UniProt P62136 1-300); assay: ITC
# [4] = biological target: catalytic subunit of protein phosphatase 1 (PP1c), α isoform (human) (UniProt P62136)
# Sequence of catalytic subunit of protein phosphatase 1 (PP1c), α isoform (human) (P62136 1-300): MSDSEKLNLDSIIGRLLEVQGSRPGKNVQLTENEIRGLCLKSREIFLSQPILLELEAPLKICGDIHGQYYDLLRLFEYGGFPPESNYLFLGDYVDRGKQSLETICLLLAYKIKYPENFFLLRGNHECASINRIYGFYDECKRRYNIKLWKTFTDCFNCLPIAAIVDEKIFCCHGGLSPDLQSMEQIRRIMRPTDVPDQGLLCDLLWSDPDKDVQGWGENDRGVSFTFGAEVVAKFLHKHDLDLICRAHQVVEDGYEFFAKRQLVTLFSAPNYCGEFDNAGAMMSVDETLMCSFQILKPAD
# Sequence of PP1 in transfected Saos-2 cells (exogenous myc-PP1c together with endogenous PP1) (P62136 whole entry): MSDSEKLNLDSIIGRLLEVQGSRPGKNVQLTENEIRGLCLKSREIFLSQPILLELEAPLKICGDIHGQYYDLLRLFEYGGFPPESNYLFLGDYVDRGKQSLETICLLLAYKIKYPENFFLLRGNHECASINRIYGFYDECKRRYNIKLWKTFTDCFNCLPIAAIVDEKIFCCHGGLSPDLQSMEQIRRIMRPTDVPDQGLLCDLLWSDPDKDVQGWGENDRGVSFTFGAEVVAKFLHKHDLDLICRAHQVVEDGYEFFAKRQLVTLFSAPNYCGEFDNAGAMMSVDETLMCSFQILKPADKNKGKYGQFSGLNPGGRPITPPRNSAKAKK
molecule,measurement,setting,value
endogenous PP1 of CV-1 cells (enzyme),"PP1 co-precipitated, percent of the immunoprecipitated Rb",[1],2%
PP1 in transfected Saos-2 cells (exogenous myc-PP1c together with endogenous PP1) (from UniProt P62136 1-330) (enzyme),"PP1 co-precipitated, percent of the immunoprecipitated Rb",[2],30%
KPLKKLRFDIEGS [Rb^870–882 peptide],Kd,[3],1200 nM
phosRb^771–874 (domain or fragment) YASTRPPTLSPIPHIPRSPYKFPSSPLRIPGGNIYISPLKSPYKISEGLPTPTKMTPRSRILVSIGESFGTSEKFQKINQMVCNSDRVLKRSAEGSNPPKPLKK,apparent KM of dephosphorylation by PP1c (steady-state analysis),[4],30 µM
phosRb^771–928 (domain or fragment) YASTRPPTLSPIPHIPRSPYKFPSSPLRIPGGNIYISPLKSPYKISEGLPTPTKMTPRSRILVSIGESFGTSEKFQKINQMVCNSDRVLKRSAEGSNPPKPLKKLRFDIEGSDEADGSKHLPGESKFQQKLAEMTSTRTRMQKQKMNDSMDTSNKEEK,apparent KM of dephosphorylation by PP1c (steady-state analysis),[4],6 µM
